The source of these data is patent publication US20110306105A1 (University of California, published 2011).

Test [1] deals with T1, trifunctional scaffoldin Scaf-ctf displayed on the yeast (S. cerevisiae EBY100) cell surface (chimeric: C. cellulolyticum, C. …, Displayed on the S. cerevisiae EBY100 cell surface through an N-terminal anchor fusion, which the letters do not carry.).
T1 construct: also called Sacf-ctf; SCAF6; not shown: N-terminal yeast display anchor and linker of vector pCTCON2 (called the GPI anchor); C-terminal c-Myc tag; the vector junctions; possibly a His stretch carried over from pETscaf6, since reverse primer R1SalI anneals on His codons
T1 chain: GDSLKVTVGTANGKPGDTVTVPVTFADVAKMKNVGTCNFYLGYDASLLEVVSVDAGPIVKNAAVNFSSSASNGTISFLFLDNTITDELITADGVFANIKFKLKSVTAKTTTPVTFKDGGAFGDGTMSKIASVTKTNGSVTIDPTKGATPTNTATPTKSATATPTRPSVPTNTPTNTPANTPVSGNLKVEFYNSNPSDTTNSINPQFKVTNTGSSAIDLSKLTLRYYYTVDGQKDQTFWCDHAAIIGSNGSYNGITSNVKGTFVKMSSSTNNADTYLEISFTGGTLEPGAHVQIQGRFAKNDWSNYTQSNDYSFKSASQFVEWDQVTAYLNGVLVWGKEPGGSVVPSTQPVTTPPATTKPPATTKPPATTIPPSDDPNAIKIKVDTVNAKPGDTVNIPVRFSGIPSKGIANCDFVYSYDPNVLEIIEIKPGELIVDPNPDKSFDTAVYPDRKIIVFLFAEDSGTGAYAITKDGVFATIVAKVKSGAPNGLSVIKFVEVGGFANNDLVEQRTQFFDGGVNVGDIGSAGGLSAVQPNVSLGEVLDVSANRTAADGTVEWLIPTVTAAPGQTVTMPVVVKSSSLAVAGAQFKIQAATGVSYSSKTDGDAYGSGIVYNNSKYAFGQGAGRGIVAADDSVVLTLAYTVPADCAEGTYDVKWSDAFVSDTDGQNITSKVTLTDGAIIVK
The test is described as follows: immunofluorescence microscopy, yeast displaying Scaf-ctf incubated with E. coli lysate.

The target in test [2] is T2, scaffoldin Scaf-c displayed on the yeast cell surface (chimeric: C. cellulolyticum cohesin …).
T2 construct: also called Sacf-c; not shown: yeast surface display anchor of vector pCTCON2; C-terminal c-Myc tag
T2 chain: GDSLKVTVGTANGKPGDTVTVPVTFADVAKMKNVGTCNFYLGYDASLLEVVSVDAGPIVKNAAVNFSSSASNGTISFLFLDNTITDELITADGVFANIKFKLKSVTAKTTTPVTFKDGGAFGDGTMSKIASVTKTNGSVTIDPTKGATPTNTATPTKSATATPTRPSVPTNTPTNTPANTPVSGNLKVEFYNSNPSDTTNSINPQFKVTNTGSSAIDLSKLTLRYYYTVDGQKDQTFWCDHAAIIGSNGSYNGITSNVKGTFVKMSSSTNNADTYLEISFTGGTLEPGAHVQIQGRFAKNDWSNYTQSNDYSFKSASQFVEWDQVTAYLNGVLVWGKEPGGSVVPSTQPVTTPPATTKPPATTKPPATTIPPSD
The experiment in a line: immunofluorescence microscopy with anti-His6 on yeast displaying Scaf-c incubated with E. coli lysate.

Test [3] concerns the target T3, scaffoldin Scaf-ct displayed on the yeast cell surface (chimeric: C. cellulolyticum, C. …).
T3 construct: also called Sacf-ct; not shown: yeast surface display anchor of vector pCTCON2; C-terminal c-Myc tag
T3 chain: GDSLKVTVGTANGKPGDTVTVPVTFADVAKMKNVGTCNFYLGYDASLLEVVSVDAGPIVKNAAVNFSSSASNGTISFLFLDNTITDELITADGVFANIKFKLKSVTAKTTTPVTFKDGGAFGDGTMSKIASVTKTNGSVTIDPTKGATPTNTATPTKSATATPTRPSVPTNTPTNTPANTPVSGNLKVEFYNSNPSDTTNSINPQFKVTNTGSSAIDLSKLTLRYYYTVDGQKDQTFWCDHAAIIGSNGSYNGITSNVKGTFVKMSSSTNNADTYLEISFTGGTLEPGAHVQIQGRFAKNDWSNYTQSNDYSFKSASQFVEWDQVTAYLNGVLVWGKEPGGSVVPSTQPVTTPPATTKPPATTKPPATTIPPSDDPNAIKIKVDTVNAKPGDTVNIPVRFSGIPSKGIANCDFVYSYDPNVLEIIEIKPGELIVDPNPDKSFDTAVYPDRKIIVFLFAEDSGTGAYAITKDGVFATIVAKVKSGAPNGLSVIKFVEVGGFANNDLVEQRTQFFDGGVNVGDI
The test is described as follows: immunofluorescence microscopy with anti-His6 on yeast displaying Scaf-ct incubated with E. coli lysate.

B1: exoglucanase CelE from C. cellulolyticum fused to a dockerin domain from the same species (Ec), His6-tagged (enzyme)
chain: MLVGAGDLIRNHTFDNRVGLPWHVVESYPAKASFEITSDGKYKITAQKIGEAGKGERWDIQFRHRGLALQQGHTYTVKFTVTASRACKIYPKIGDQGDPYDEYWNMNQQWNFLELQANTPKTVTQTFTQTKGDKKNVEFAFHLAPDKTTSEAQNPASFQPITYTFDEIYIQDPQFAGYTEDPPEPTNVVRLNQVGFYPNADKIATVATSSTTPINWQLVNSTGAAVLTGKSTVKGADRASGDNVHIIDFSSYTTPGTDYKIVTDVSVTKAGDNESMKFNIGDDLFTQMKYDSMKYFYHNRSAIPIQMPYCDQSQWARPAGHTTDILAPDPTKDYKANYTLDVTGGWYDAGDHGKYVVNGGIATWTVMNAYERALHMGGDTSVAPFKDGSLAIPEAEVYPDILDEARYQLINMKTLLNSQVPAGKYAGMAHHKAHDERWTALAVRPDQDTMKRWLQPPSTAATLNLAAIAAQSSRLWKQFDSAFATKCLTAAETARDAAVAHPEIYATMEQGAGGGAYGDNYVLDDFYWAACELYATTGSDKYLNYIKSSKHYLEMPTELTGGENTGITGAFDWGCTAGMGTITLALVPTKLPAADVATAKANIQAAADKFISISKAQGYGVPLEEKVISSPFDASVVKGFQWGSNSFVINEAIVMSYAYEFSDVNGTKNNKYINGALTAMDYLLGRNPNIQSYITGYGDNPLENPHHRFWAYQADNTFPKPPPGCLSGGPNSGLQDPWVKGSGWQPGERPAEKCFMDNIESWSTNEITINWNAPLVWISAYLDEKGPEIGGSVTPPTNLGDVNGDGNKDALDFAALKKALLSQDTSTINVANADINKDGSIDAVDFALLKSFLLGKITQHHHHHH
notes: Expressed in E. coli and used as cell lysate or purified; also called CelE-Dc
On to B1, for which, in test [1], the binding result is reported as “binds”.

B2: endoglucanase CelG from C. cellulolyticum fused to a dockerin domain from R. flavefaciens (Gf), His6-tagged (enzyme)
chain: MGTYNYGEALQKSIMFYEFQRSGDLPADKRDNWRDDSGMKDGSDVGVDLTGGWYDAGDHVKFNLPMSYTSAMLAWSLYEDKDAYDKSGQTKYIMDGIKWANDYFIKCNPTPGVYYYQVGDGGKDHSWWGPAEVMQMERPSFKVDASKPGSAVCASTAASLASAAVVFKSSDPTYAEKCISHAKNLFDMADKAKSDAGYTAASGYYSSSSFYDDLSWAAVWLYLATNDSTYLDKAESYVPNWGKEQQTDIIAYKWGQCWDDVHYGAELLLAKLTNKQLYKDSIEMNLDFWTTGVNGTRVSYTPKGLAWLFQWGSLRHATTQAFLAGVYAEWEGCTPSKVSVYKDFLKSQIDYALGSTGRSFVVGYGVNPPQHPHHRTAHGSWTDQMTSPTYHRHTIYGALVGGPDNADGYTDEINNYVNNEIACDYNAGFTGALAKMYKHSGGDPIPNFKAIEKITNDEVIIKAGLNSTGPNYTEIKAVVYNQTGWPARVTDKISFKYFMDLSEIVAAGIDPLSLVTSSNYSEGKNTKVSGVLPWDVSNNVYYVNVDLTGENIYPGGQSACRREVQFRIAAPQGRRYWNPKNDFSYDGLPTTSTVNTVTNIPVYDNGVKVFGNEPAGGSEPGTKLVPTWGDTNCDGVVNVADVVVLNRFLNDPTYSNITDQGKVNADVVDPQDKSGAAVDPAGVKLTVADSEAILKAIVELITLPQHHHHHH
notes: Expressed in E. coli; also called CelG-Df
With B2, the binding result in test [2] and in test [3] was “no binding” in each case.
